The target of the experiment is ACE (angiotensin-I converting enzyme) from rabbit lung (rabbit) (UniProt P12822).

Where “and” joins values, the source holds several entries; their conditions need not be identical. Identical values can stand only once.

Sequence of UniProt P12822 (P12822 34-1310): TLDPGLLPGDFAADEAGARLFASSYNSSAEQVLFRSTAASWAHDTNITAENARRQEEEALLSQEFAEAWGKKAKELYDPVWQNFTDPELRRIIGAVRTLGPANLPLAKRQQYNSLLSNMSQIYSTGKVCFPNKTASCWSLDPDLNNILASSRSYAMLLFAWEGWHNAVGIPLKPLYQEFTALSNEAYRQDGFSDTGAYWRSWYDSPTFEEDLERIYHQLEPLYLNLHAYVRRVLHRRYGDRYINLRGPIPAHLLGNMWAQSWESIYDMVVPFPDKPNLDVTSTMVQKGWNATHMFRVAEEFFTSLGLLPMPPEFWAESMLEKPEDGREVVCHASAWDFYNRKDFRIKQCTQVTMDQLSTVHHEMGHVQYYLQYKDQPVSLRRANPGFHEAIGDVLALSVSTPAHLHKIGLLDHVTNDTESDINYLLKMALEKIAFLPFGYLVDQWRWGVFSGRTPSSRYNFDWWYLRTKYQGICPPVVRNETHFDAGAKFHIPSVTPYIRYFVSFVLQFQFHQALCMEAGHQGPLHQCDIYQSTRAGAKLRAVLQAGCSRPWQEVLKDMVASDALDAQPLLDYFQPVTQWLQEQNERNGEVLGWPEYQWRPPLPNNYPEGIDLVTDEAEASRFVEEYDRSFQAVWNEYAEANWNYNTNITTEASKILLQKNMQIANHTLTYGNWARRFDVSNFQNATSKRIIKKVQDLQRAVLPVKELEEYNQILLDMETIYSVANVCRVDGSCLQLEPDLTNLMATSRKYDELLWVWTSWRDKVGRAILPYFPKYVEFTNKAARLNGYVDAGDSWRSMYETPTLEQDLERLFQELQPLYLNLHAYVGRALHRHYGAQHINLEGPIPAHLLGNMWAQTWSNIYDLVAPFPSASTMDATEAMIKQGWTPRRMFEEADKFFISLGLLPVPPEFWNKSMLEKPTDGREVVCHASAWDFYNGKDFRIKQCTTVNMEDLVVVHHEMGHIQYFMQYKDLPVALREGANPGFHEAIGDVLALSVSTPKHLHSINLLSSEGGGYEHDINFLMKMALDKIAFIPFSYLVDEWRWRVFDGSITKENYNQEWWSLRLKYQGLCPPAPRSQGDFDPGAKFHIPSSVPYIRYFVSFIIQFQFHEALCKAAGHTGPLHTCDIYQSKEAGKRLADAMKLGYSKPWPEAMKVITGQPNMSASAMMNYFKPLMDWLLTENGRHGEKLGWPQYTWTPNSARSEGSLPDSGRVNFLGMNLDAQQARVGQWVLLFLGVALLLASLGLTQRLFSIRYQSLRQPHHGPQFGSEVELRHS

As for IER tripeptide, the ACE inhibition (FAPGG hydrolysis, absorbance at 340 nm), IC50 was 0.06 mg/ml and 0.144 mM.

These data come from article PMC7055321.
